Experimental findings from US20210147546A1 (VRIJE UNIVERSITEIT BRUSSEL, published 2021) are described below.

Test [1] concerns the target T1, recombinant His-tagged human PD-L1 protein (SINO Biologicals, 10084-H08H) (human, UniProt Q9NZQ7 19-238).
T1 construct: Bought protein; also called immobilized recombinant PD-L1 protein; not shown: His-tag
Description: SPR (Biacore T200), purified sdAb over immobilized recombinant human PD-L1. The method, then:
(§1) All measurements were performed on a Biacore T200 device (GE Healtcare) at 25° C. and using Hepes-buffered saline (0.01M HEPES, pH 7.4; 0.15M NaCl, 3 mM EDTA, 0.005% Tween20) as running buffer. All recombinant proteins were dissolved to 10 μg/mL in 10 mM Na-acetate (pH 5.0) for immobilization on a CM5 sensor chip using linkage chemistry with 1-(3-(dimethylamino)propyl)-3-ethylcarbodiimide (EDC) and N-hydroxy-succinimide ([…]). Unreacted EDC-NHS linkers were blocked with 1M ethanolamine-HCl. For all measurements, SPR signals in the flow cell with immobilized protein were subtracted with those in a flow cell that underwent the same manipulations but where recombinant protein was omitted, to obtain specific binding signals (response units, RU). Affinity for human PD-L1 of the purified sdAbs was evaluated on immobilized PD-L1 protein.
For orientation: In SPR one partner is held on a chip, and binding of the other changes the refractive index at the surface.

The target in test [2] is T2, human PD-L1 expressed on cells (lentivirally transduced HEK293T, MCF7 and 624-MEL cells; endogenous on moDCs) (human, UniProt Q9NZQ7 19-290).
T2 construct: whole, on cells; also called PD-L1+ MCF7
Description: flow cytometry, fold increase in mean fluorescence intensity of binding to human PD-L1 compared to control sdAb. (In general: Flow cytometry measures light scatter and fluorescence of single cells or particles in a stream.)

Test [3] deals with T3, recombinant Fc-tagged human PD-L1 (R&D Systems, 156-B7) (human, UniProt Q9NZQ7 19-239).
T3 construct: Bought protein; Also the immunogen for the alpacas; also called PD-L1-Fc; Fc-PD-L1; not shown: Fc tag
Kind of test: SPR competition: sdAb mixed with 25 nM PD-L1-Fc, run over immobilized PD-1-Fc (FIG. 5A). The method, then: as §1
(§2) To evaluate the sdAb's IC₅₀, the sdAb concentration at which the relative response of the interaction between PD-1 and PD-L1 is inhibited by half, Fc-PD-1 protein was immobilized on a CM5 chip. […] The maximum relative response values were plotted in function of competing sdAb concentration and analyzed with a “Log inhibitor versus response (variable lope)” model in Prism to calculate IC₅₀ values.

Test [4] addresses T3, recombinant Fc-tagged human PD-L1 (R&D …). Kind of test: SPR competition: sdAb mixed with soluble recombinant human PD-L1, run over immobilized human PD-1 (FIG. 16B).
From the text: as §2

Test [5] shares this target. Kind of test: SPR competition: sdAb K2 (0,78 to 1000 nM) mixed with 25 nM PD-L1-Fc and run over immobilized PD-1 Fc. The binder is named by legend paragraph 20, not on the sheet. The text gives 9.5 nM for this figure. How it is done: as §1, §2

T1 sequence (Q9NZQ7 19-238 limits assumed): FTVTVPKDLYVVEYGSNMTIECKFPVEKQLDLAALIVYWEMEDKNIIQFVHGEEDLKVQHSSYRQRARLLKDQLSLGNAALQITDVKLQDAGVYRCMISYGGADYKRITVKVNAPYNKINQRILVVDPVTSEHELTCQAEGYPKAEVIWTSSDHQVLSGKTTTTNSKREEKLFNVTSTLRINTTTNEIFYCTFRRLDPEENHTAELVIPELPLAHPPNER
T2 sequence (Q9NZQ7 19-290): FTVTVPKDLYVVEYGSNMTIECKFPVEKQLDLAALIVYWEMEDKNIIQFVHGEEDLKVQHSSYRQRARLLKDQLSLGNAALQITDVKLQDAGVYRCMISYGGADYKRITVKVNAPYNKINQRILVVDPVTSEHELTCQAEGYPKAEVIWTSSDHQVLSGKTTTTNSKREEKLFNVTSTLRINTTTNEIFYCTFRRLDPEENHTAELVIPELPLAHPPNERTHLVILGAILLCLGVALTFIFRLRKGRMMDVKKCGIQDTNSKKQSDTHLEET
T3 sequence (Q9NZQ7 19-239 limits assumed): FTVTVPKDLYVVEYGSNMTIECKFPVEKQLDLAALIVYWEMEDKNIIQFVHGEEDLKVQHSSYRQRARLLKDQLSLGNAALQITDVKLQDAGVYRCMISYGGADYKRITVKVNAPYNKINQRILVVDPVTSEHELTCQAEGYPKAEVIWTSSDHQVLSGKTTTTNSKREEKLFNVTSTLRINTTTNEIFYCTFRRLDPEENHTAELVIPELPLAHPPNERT

B1: sdAb K4 (human PD-L1-specific single domain antibody, C-terminal HIS-tag) (VHH)
VHH: QVQLQESGGGLVQPGGSLRLSCAASGFTFSSFAMSWVRQVPGRTLEWVSDINTGGDSTDYANSVKGRFTISRDNAKNTLYLQMNSLKPDDTAVYYCANVPKELVFSFASWGRGTQVTVSS
Broadly, the Kd is a measure of binding affinity in units of concentration. Consider B1, for which the Kd in test [1] was determined as 4.5 nM. The “MFI PD-L1 binding (fold increase)” value in test [2] worked out at 6.9 fold.

B2: sdAb K2 (human PD-L1-specific single domain antibody, C-terminal HIS-tag) (VHH)
VHH: QVQLQESGGGLVQPGGSLRLSCAASGFTFSSFAMSWVRQAPGKGLEWVSDIDTTGRTTDYADSVKGRFTISRDNAENTLYLQMNDLKPEDTAVYYCANVPKELVLSFGSWGPGTQVTVSS
notes: also called anti-hPD-L1 sdAb K2; K2 (huPDL1 nanobody)
For orientation: IC50 means the concentration that gives 50% inhibition. As to B2, in test [1], the dissociation constant (Kd) came to 5.2 nM. Further, the IC50 in test [3] is 9.5 nM; in test [4] it was 8.5 nM; in test [5], 10 nM. The “MFI PD-L1 binding (fold increase)” value in test [2] is 22.8 fold.

B3: sdAb K3 (human PD-L1-specific single domain antibody, C-terminal HIS-tag) (VHH)
VHH: QVQLQESGGGSVQPGGSLRLSCEASGFTFSSYAMSWVRQAPGEGLEWVSDINTGGDNTDYAGSVKGRFTISRDNAKNTLYLQMDSLKPEDTAKYYCANVPKELVHSFNSWGQGTQVTVSS
notes: also called K3 (huPDL1 nanobody)
In the case of B3, the Kd in test [1] worked out at 3.5 nM. For the same molecule, the “MFI PD-L1 binding (fold increase)” value in test [2] is 23.4 fold.
